Data as given in patent US7803572B2, “Protease detection assay” (Atlas Genetics, Ltd., priority 2003, dated 2010).
Like-named read-outs stand apart in the source and are kept apart here.

Experiments:
[1] = system: elastase; test: Digestion of Fc-BSA with elastase, differential pulse voltammetry; type: biochemical
Protocol: (§1) Protease assays were performed as follows unless stated otherwise. […] Samples were incubated at 37° C. for 1 hour.
A digestion of Fc-BSA with elastase was carried out as described above. […] The positive reaction has a peak position of 430 mV and a peak height of 2.57×10^−7 A; the no elastase control reaction has a peak position of 432 mV and a peak height of 2.55×10^−8 A.

[2] = biological target: T1, type II bovine pancreas α-chymotrypsin (Bos taurus, UniProt P00766); test: Digestion of Fc-BSA with α-chymotrypsin, differential pulse voltammetry; type: biochemical
T1 construct: purchased Sigma; host or cells: bovine pancreas
Protocol: as §1
A digestion of Fc-BSA with α-chymotrypsin was carried out as described above. […] The positive reaction has a peak position of 438 mV and a peak height of 4.48×10^−7 A; the no α-chymotrypsin control reaction has a peak position of 432 mV and a peak height of 2.55×10^−8 A.

[3] = biological target: T2, porcine pancreas trypsin (Sus scrofa, UniProt P00761); test: Effect of a protease inhibitor on electrochemical marker signal (trypsin digestion of Fc-BSA); type: biochemical; conditions: reaction (i): no inhibitor added
T2 construct: purchased Sigma; host or cells: porcine pancreas
Protocol: as §1
Five digestions of Fc-BSA with trypsin were carried out using the protocol described above. In addition, soybean trypsin inhibitor was added to reaction mixtures […]. Solutions of the soybean trypsin inhibitor were prepared by resuspending inhibitor as supplied in deionised water to a concentration of 10 mg/ml and 1 mg/ml as appropriate. No inhibitor was added to reaction (i); 0.5 μl of 1 mg/ml inhibitor solution was added to reaction (ii); […] of 10 mg/ml inhibitor was added to reaction (iii); 5 μl of 10 mg/ml inhibitor solution was added to reaction (iv) and 5 μl of 10 mg/ml inhibitor solution was added to a no-trypsin control reaction. The differential pulse voltammogram results are shown in FIG. 16 with baseline correction.

[4] = biological target: T3, trypsin (Sus scrofa, UniProt P00761); test: Amperometric analysis of trypsin digestion; type: biochemical, porcine; conditions: amperometric time course trace
T3 construct: purchased Sigma; host or cells: porcine pancreas
Protocol: Four digestion reactions were carried out with real-time amperometric analysis. […] Tryspin was resuspended in HCl (1 mM, pH 3.0), papain and carboxypeptidase were resuspended in NaCl (100 mM). […] The amperometry conditions were as set out in Tables 2 and 3.
In FIG. 17, there is shown the amperometric time course trace for the trypsin digestion of Fc-BSA. […] As the movement of the species present in the solution reaches a steady state, the current response appears to decay.
In FIG. 18, there is shown the amperometric time course trace for the papain digestion of FcU-BSA. […] As the movement of the species present in the solution reaches a steady state, the current response appears to decay. […] The amperometric time course trace for the trypsin digestion of FcU-BSA is not illustrated in the drawings but was analogous.

[5] = biological target: Bacillus thermoproteolyticus rokko thermolysin (Bacillus thermoproteolyticus, UniProt P00800); conditions: for peak: no-thermolysin control reaction; for peak height / peak position: positive reaction
Protocol: The low volume cell of FIG. 1 was filled with approximately 10 ml sodium chloride solution (100 mM). A 200 μl aliquot of the sample for analysis was placed in the glass sample chamber which was then placed in the low volume cell along with the reference and counter electrodes. The electrodes were connected to the AUTOLAB electrochemical workstation and differential pulse voltammetry carried out using the parameters described in Table 1. Prior to analysis the glassy carbon working electrode was polished (using BAS polishing kit catalogue number MF-2060) followed by conditioning. Electrode conditioning consists of cyclic voltammetry, sweeping between +−1 volt in the appropriate background buffer.
Protease assays were performed as follows unless stated otherwise. Lyophilised enzymes were re-suspended to give a concentration of 10 mgml^−1. Enzymes were resuspended in the following solutions: HCl (1 mM, pH 3.0) (trypsin, α-chymotrypsin, pepsin), NaCl (100 mM) (proteinase K, elastase, papain, carboxypeptidase, thermolysin). 75 μl of Fc-BSA solution (0.3-0.6 mgml^−1) was used per reaction. Each reaction was carried out in a total volume of 200 μl and the reactions were performed in the following buffers (final concentrations are given): 100 mM tris HCl pH7.8 (trypsin, α-chymotrypsin, thermolysin, proteinase K); 100 mM tris HCl pH 8.5 (elastase); 200 mM sodium acetate, 200 mM cysteine, 20 mM EDTA (papain); 10 mM HCl pH 2.0 (pepsin); 25 mM tris HCl pH7.5, 500 mM NaCl (carboxypeptidase). 2 μl enzyme (10 mgml^−1) was added to the […] reaction mixture. Samples were incubated at 37° C. for 1 hour. The reaction products were analysed by differential pulse voltammetry as described in Example 1.
Baseline corrected data was obtained using GPES MANAGER (Ecochemie BV, Utrecht, Netherlands) selecting baseline correction from the edit data menu, selecting moving average, minimum peak width 0.003V.
A digestion of Fc-BSA with thermolysin was carried out as described above with the digestion incubation at 37° C.
A digestion of Fc-BSA with thermolysin was carried out as described above with the digestion incubation at 70° C.

[6] = system: carboxypeptidase; test: Digestion of Fc-BSA with carboxypeptidase, differential pulse voltammetry; type: biochemical
Protocol: as §1
A digestion of Fc-BSA with carboxypeptidase was carried out as described above. […] The positive reaction has a peak position of 435 mV and a peak height of 1.31×10^−7 A; the no elastase control reaction has a peak position of 427 mV and a peak height of 6.86×10^−8 A.

[7] = no α-chymotrypsin control reaction
[8] = positive reaction, 37° C. for 1 hour

Bacillus thermoproteolyticus rokko thermolysin, sequence (P00800 233-548): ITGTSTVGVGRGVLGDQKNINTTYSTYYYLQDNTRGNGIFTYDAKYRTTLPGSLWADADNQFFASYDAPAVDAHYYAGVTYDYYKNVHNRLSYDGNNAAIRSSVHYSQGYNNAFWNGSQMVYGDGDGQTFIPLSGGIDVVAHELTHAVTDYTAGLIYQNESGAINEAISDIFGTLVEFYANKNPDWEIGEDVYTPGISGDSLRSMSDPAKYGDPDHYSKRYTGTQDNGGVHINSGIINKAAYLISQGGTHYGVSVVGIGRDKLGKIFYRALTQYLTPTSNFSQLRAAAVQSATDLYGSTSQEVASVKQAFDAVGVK
T2 sequence (P00761 9-231): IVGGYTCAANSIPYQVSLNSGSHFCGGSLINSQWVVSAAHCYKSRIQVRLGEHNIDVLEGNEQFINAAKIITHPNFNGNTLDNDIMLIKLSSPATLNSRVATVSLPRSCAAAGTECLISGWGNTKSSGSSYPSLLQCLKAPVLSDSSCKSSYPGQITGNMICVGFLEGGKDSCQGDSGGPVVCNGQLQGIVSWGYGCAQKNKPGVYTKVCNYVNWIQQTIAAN
T3 sequence (P00761 9-231): as above

## Fc-BSA: Bovine serum albumin labelled with ferrocene methanoyl groups via N-hydroxysuccinimide ester; estimated 10 to 20 ferrocenes per BSA
[1]; no elastase control reaction
  peak height: 2.55×10^−8 A
[1]; positive reaction, tris HCl pH 8.5, 37° C. for 1 hour
  peak height: 2.57×10^−7 A
[2]; [7]
  peak height: 2.55×10^−8 A
  peak position: 432 mV
[2]; [8]
  peak height: 4.48×10^−7 A
  peak position: 438 mV
[3]
  peak height: 2.56×10^−7 A
  peak position: 439 mV
[4]
  faradaic current response over time after addition of the enzyme: increase in current
[5]; 37° C.
  peak: no peak was found
[5]; 70° C.
  peak: no peak was found
[5]; digestion incubation at 37° C.
  peak height: 1.62×10^−8 A
  peak position: 429 mV
[5]; digestion incubation at 70° C.
  peak height: 2.0×10^−8 A
  peak position: 455 mV
[6]; no elastase control reaction (so in the source)
  peak height: 6.86×10^−8 A
[6]; [8]
  peak height: 1.31×10^−7 A
